In publication PMC12965811 (Nature chemical biology, 2025):

Key:
[1] = biological target: full-length human cytoplasmic dynein 1 (wild type) (human) (UniProt Q14204); assay: cryo-EM structure
[2] = biological target: full-length human cytoplasmic dynein 1 (wild type) (human) (UniProt Q14204); assay: mass photometry
[3] = biological target: T1, Lis1^AAA6 (N203K, D205K and Q222A) (human, UniProt P43034 1-410, N203K | D205K | Q222A); assay: mass photometry
T1 sequence (looked up): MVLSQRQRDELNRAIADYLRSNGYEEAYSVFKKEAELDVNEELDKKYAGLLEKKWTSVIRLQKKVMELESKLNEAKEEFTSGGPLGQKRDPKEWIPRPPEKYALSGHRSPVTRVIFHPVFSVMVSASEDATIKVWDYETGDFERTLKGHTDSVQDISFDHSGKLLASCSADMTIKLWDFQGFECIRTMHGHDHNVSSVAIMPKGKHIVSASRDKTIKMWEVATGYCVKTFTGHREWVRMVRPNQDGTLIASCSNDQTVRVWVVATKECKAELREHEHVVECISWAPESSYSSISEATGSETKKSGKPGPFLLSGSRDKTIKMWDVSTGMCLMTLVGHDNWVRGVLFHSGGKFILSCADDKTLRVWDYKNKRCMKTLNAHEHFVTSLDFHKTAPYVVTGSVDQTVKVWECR

human Lis1 (wild type) = biological target: T2, human Lis1 (wild type) (human, UniProt P43034 1-410); assay: mass photometry
T2 sequence: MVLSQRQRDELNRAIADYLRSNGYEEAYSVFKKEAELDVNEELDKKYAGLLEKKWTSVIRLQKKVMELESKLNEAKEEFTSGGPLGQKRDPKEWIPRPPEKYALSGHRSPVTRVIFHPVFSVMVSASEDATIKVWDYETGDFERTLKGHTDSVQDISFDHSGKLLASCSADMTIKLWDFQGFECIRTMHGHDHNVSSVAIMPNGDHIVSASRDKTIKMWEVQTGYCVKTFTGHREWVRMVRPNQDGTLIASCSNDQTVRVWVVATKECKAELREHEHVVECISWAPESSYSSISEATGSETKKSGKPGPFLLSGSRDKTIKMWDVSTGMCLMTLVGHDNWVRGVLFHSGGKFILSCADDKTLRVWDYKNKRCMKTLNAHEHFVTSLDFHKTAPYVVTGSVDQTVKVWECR

[4] = biological target: T3, Lis1^All (D192K, D205K, E300A and K303A) (human, UniProt P43034 1-410, D192K | D205K | E300A | K303A); assay: mass photometry
T3 sequence (looked up): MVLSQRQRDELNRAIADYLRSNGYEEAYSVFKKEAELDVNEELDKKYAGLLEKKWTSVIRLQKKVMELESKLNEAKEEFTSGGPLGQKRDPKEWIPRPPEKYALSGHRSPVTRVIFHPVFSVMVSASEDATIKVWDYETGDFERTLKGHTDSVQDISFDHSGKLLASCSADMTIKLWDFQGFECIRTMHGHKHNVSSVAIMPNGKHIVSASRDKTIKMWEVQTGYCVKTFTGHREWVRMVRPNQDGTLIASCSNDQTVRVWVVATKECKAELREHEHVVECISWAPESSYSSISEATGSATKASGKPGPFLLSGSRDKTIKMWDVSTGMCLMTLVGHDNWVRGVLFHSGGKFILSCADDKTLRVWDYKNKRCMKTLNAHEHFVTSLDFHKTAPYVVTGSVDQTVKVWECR

[5] = biological target: T4, Lis1^AAA5 (D192K, Y225A and C226D) (human, UniProt P43034 1-410, D192K | Y225A | C226D); assay: mass photometry
T4 sequence (looked up): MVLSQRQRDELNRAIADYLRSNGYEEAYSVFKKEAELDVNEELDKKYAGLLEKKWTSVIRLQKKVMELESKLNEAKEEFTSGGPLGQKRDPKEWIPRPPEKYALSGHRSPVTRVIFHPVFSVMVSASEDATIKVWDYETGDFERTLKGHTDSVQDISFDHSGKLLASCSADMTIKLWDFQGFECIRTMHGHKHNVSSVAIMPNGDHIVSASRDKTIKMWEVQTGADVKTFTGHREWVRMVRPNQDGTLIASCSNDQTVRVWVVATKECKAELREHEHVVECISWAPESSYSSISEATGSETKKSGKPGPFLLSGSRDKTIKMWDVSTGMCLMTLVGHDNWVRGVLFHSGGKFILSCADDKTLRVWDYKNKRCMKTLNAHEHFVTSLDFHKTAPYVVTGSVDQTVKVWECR

human Lis1 (wild type) (from UniProt P43034 1-410) (natural protein)
percent of autoinhibited dynein particles in the Phi^L–Lis1 conformation [1]: 57.3% | stoichiometry N (Lis1 dimer per dynein) [1]: 1 | percent of 1:1 dynein:Lis1 complex (no Nde1, within 60 min) [2]: 37% | percent of complex formation (with Nde1, within a minute) [2]: 69% | stoichiometry N (Lis1 dimer per dynein dimer) [2]: 1 | stoichiometry N (Lis1 dimer per dynein) [2]: 1

B1: human Nde1 (N-terminal residues 1–190) (domain or fragment, UniProt Q9NXR1 1-190, looked up)
chain: MEDSGKTFSSEEEEANYWKDLAMTYKQRAENTQEELREFQEGSREYEAELETQLQQIETRNRDLLSENNRLRMELETIKEKFEVQHSEGYRQISALEDDLAQTKAIKDQLQKYIRELEQANDDLERAKRATIMSLEDFEQRLNQAIERNAFLESELDEKENLLESVQRLKDEARDLRQELAVQQKQEKPR
binding result [3]: binds | binding result (human Lis1 (wild type)): binds | binding result [4]: binds | binding result [5]: binds
